Measurements from patent US7220539.

Legend:
TRB-2 = system: T1, TRB-2
T1 sequence: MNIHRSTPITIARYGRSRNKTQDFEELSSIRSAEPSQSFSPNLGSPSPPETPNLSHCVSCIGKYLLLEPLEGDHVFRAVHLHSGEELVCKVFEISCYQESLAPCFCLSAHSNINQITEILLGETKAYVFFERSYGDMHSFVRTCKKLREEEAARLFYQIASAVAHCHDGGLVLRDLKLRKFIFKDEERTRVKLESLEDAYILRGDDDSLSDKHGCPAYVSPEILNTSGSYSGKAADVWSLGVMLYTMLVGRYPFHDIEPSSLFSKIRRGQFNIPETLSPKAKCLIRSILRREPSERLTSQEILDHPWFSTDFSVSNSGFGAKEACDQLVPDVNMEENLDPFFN

[1] = system: TRB-3 (wild-type, recombinant; tag and species not stated)
[2] = target: Akt (over-expressed or present in transfected cells; isoform and tag not stated); experiment: cell-based or functional assay
[3] = target: GAL4 ΔPH (amino acids 150-480) Akt construct (yeast) (UniProt P04386); experiment: cell-based or functional assay
UniProt P04386, sequence (P04386 1-147, stated change not applied): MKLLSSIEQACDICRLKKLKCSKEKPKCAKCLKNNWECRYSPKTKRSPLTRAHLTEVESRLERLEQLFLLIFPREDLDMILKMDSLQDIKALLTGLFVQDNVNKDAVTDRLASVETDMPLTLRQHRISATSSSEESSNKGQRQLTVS

In the case of “Akt (over-expressed or present in transfected cells; isoform and tag not stated)”, the “phosphorylation of Akt” value (TRB-2) is reported as “TRB-2 was similarly effective at blocking Akt phosphorylation”.

For HA-tagged Akt1, the “Akt activity, in vitro kinase assays with a consensus Akt peptide substrate” value [1] was “Over-expression of TRB-3 reduced Akt activity”.

With “TRB-3 (wild-type, recombinant; tag and species not stated)” the forkhead (Foxo1) activity on an IGFBP1 reporter in HEK293 cells [2] was 3 fold.

“TRB-3-VP16 (from UniProt P06492 411-490)” gave a GAL4 luciferase reporter activity, mammalian two hybrid assay in HEK293 cells, relative to control VP16 expression vector [3] of 5 fold.
